From patent US7256011

Test system: PL-FXa-b2AR fusion protein (ED - Factor Xa cleavage site - beta2-adrenergic receptor) on HEK293 transient transfectant cells

Question: For Factor Xa, which “EFC activity (relative luminescent units, RLU)” value is on record?
Answer: Its value is “a difference in about 30,000 RLUs was observed over a range in concentration of FXa of about 10^-3 to 10^1 ug/mL”.
